The values that follow come from US20230295345A1 (published 2023).

Test [1] has as its target T1, TMPRSS6 expressed in transfected HepG2 cells (HAMP-luciferase reporter assay) (UniProt Q8IU80 1-811, limits assumed).
T1 sequence (looked up): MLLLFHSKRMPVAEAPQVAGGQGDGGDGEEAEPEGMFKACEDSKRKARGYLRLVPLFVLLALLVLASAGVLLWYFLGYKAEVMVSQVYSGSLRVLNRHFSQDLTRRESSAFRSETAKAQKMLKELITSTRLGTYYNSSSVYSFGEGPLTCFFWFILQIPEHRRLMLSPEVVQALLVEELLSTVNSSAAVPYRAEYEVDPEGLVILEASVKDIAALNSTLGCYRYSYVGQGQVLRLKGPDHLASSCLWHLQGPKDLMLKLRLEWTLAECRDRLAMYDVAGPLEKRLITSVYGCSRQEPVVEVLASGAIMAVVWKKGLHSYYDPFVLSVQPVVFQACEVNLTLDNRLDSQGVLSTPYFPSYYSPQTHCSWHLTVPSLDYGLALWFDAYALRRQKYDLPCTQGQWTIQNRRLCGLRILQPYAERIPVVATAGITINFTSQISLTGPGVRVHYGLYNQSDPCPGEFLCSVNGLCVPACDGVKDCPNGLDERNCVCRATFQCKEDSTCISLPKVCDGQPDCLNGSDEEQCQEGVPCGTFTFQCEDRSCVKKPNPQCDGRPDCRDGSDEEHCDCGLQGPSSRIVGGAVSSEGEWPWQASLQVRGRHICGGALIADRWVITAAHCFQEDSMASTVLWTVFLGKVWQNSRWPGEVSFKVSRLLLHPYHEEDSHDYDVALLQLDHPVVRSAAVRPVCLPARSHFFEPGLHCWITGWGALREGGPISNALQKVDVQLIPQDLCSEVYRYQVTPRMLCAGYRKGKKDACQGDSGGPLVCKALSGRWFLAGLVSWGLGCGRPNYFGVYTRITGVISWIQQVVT
Nature of the test: cell-based or functional assay.

Test [2] concerns the target T2, matriptase-3 (TMPRSS7) over-expressed in HEK293T cells (human, UniProt Q7RTY8 1-843).
T2 sequence: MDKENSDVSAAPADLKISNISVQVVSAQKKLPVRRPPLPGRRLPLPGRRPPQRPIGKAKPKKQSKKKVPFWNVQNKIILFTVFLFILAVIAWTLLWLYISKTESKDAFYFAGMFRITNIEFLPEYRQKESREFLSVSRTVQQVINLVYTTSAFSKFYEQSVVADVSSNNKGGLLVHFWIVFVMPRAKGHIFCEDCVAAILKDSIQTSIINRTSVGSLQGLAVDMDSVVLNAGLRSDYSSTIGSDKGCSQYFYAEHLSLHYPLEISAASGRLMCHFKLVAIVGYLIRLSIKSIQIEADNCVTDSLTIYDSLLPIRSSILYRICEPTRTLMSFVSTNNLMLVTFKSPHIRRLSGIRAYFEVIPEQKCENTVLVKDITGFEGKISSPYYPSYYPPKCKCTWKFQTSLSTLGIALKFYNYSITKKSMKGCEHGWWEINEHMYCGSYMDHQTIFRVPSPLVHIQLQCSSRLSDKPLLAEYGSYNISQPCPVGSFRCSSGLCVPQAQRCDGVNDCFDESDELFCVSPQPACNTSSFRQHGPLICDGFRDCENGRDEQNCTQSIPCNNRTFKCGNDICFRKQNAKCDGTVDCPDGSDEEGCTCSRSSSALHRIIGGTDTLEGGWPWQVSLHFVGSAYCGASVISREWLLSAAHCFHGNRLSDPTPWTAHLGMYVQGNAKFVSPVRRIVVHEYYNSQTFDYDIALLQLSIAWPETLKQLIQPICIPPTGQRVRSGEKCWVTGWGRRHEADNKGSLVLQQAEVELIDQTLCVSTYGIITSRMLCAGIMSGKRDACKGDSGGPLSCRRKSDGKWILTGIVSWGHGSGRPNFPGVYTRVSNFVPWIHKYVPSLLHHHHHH
Nature of the test: FACS on permeabilized HEK293T cells over-expressing TMPRSS7. The text has this:
To determine if anti-TMPRSS6 antibodies bind to homologous matriptases, HEK293T cells over-expressing matriptase (ST14) (SEQ ID NO: 100) (FIGS. 5B, 5E, 5H, 5K, 5N, 5Q), and HEK293T cells over-expressing matriptase-3 (TMPRSS7) (SEQ ID NO: 101) (FIGS. 5C, 5F, 5I, 5L, 5O, 5R) were collected (generated in house). HEK293T cells stably expressing human TMPRSS6 (matriptase-2) (SEQ ID NO:97) (generated by LakePharma Inc as described above, FIGS. 5A, 5D, 5G, 5J, 5M, 5P) were used as a positive control and HEK293T cells (FIGS. 5A-5R) were used as a negative control (as described above). Cells were blocked and permeabilized with dPBS + 3% BSA + 0.1% Tween-20 before incubation with various anti-TMPRSS6 antibodies diluted in dPBS + 3% BSA + 0.1% Tween-20. Cells were incubated with anti-TMPRSS6 antibodies and their humanized variants at a concentration of roughly 1 µg/ml for 1 hr. After incubation, cells were washed with dPBS and incubated with goat anti-mouse IgG conjugated with AlexaFluor-488 (Invitrogen, FIGS. 5A-5I) or goat anti-human IgG conjugated with Allophycocyanin (APC) (Jackson Immuno Research, FIGS. 5J-5R) as a 2° antibody. At last, cells were washed with dPBS and re-suspended with dPBS + 1 mM EDTA, and then subjected to FACS analysis using a NOVOCYTE® Flow Cytometer. Bound antibody was determined by excitation at 488 nm and measurement of emission (FITC-A) at 530 nm (FIGS. 5A-5I) or by excitation at 640 nm and measurement of emission (APC-A) at 675 nm (FIGS. 5J-5R). Results for these assays are shown in histogram plots in FIGS. 5A-5R.

B1: hzMWTx-002Var anti-TMPRSS6 antibody (antibody, human IgG1, kappa, N297A, V domains shown)
VH: EVQLVQSGAEVKKPGASVKVSCKASGFNIKDYYIHWVRQATGQGLEWMGRIDPEDAESEYAPKFQGRVTITADTSTDTAYMELSSLRSEDTAVYYCTRGDSMMVTYFDYWGQGTLVTVSS
VL: DIQMTQSPSSLSASVGDRVTITCKASQDVSTAVAWYQQKPGKAPKLLIYWAFTRHTGVPSRFSGSGSGTDYALTISSLQPEDFATYYCQQHYRSPWTFGGGTKVEIKR
notes: Humanized variant of MWTx-002, human IgG1/kappa
In the case of B1, the “EC50, HAMP promoter activity (HAMP-luciferase reporter assay in HepG2 cells)” value (“EC50, HAMP promoter activity” below) in test [1] was determined as 0.3 µg/mL. In addition, the binding result in test [2] is given as “no binding (tested: roughly 1 µg/ml)”.

B2: hzMWTx-001Var anti-TMPRSS6 antibody (antibody, human IgG1, kappa, N297A, V domains shown)
VH: EVQLVQSGAEVKKPGASVKVSCKASGYTFTSYWITWVRQAPGQRLEWIGNIYPGSGSTYYNEKFKSKATITRDTSSRTAYMELSSLRSEDTAVYYCAPYDADYAMDYWGQGTLVTVSS
VL: DIQMTQSPSSLSASVGDRVTITCKASQDISNYLSWFQQKPGKAPKLLIYRANRLVEGVPSRFSGSGSGTDFTLTISSLQPEDFATYFCLQYDEFPLTFGGGTKVEIKR
notes: Humanized variant of MWTx-001, human IgG1/kappa
On to B2, for which the “EC50, HAMP promoter activity” value in test [1] came to 0.8 µg/mL. For the same molecule, in test [2], the binding result is listed as “no binding (tested: roughly 1 µg/ml)”.

B3: MWTx-003 anti-TMPRSS6 antibody (antibody, mouse IgG2b, kappa, V domains shown)
VH: EVQLQQSGAELVKPGASVKLSCTASGFNIEDYYIHWVKERTEQGLEWIGRIDPEDGETTYAPQFQGKATIIPDTSSNTAYMQLSSLTSEDAAVYYCARSIYLDPMDYWGQGTSVTVSS
VL: DIVMTQSHKFMSTSVGDRVSITCKASQDVTTAVAWYQQKPGQSPKILIYWATTRHTGVPDRFTGSISGTTYILTISSVQAEDLALYYCQQHYSTPYTFGGGTKLEIKR
notes: Mouse monoclonal antibody from a hybridoma (ATCC PTA-126761); also called r4K12B (recombinantly expressed version, same HC and LC)
On to B3, for which the “EC50, HAMP promoter activity” value in test [1] was 2 µg/mL. Further, the binding result in test [2] was “no binding (tested: roughly 1 µg/ml)”.

B4: MWTx-002 anti-TMPRSS6 antibody (antibody, mouse IgG2b, kappa, V domains shown)
VH: EVQLQQSGAELVKPGASVKLSCTASGFNIKDYYIHWVKERTEQGLEWFGRIDPEDGESEYAPKFQGKATLTADTSSNTAYLQLSSLTSEDTAVYYCTRGDSMMVTYFDYWGQGTTLTVSS
VL: DIVMTQSHKFMSTSVGDRVSITCKASQDVSTAVAWYQQKPGQSPKLLIYWAFTRHTGVPDRFTSTGSGTDYALTISSVQAEDLALYYCQQHYRSPWTFGGGTKLEIKR
notes: Mouse monoclonal antibody from a hybridoma (ATCC PTA-126760)
For B4, the “EC50, HAMP promoter activity” value in test [1] was determined as 1 µg/mL. Besides, the binding result in test [2] is given as “no binding (tested: roughly 1 µg/ml)”.

B5: MWTx-001 anti-TMPRSS6 antibody (antibody, mouse IgG2a, kappa, V domains shown)
VH: QVQLQQPGAELAKPGASVKMSCKASGYTFTSYWITWVKQRPGQDLEWIGNIYPGSGSTYYNEKFKSKATLTVDTSSRTAYMQLSSLTSADSAVYYCAPYDSDYAMDYWGQGTSVTVSS
VL: DIKMTQSPSSMYASLGERVTITCKASQDINNYLSWFQQKPGKSPKTLIYRANRLVDGVPSRVSGSGSGQDYSLTISSLEYEDVGIYFCLQYDEFPLTFGAGTKLELKR
notes: Mouse monoclonal antibody from a hybridoma (ATCC PTA-126759)
On to B5, for which the “EC50, HAMP promoter activity” value in test [1] was determined as 3 µg/mL. Also, the binding result in test [2] was “no binding (tested: roughly 1 µg/ml)”.

B6: hzMWTx-003Var anti-TMPRSS6 antibody (antibody, human IgG1, kappa, L234A L235A, V domains shown)
VH: QVQLVQSGAEVKKPGASVKVSCKASGFNIEDYYMHWVRQAPGQRLEWMGRIDPEDAETTYSPKFQGRVTIIPDTSANTAYMELSSLRSEDTAVYYCARSIYLDPMDYWGQGTLVTVSS
VL: DIQMTQSPKSLSASVGDRVTITCRASQDVTTALAWYQQKPGQSPKLLIYWATTRHSGVPSRFSGSGSGTDFTLTISSLQPEDFATYYCQQHYSTPYTFGQGTKLEIKR
notes: Humanized variant of MWTx-003, human IgG1/kappa
With B6, in test [1], the “EC50, HAMP promoter activity” value is 0.3 µg/mL. In addition, the binding result in test [2] is listed as “no binding (tested: roughly 1 µg/ml)”.
